Reference: US20250361297A1, “ANTI- SIGLEC-15 BINDING MOLECULES AND METHODS OF USE” (ADAPTAM THERAPEUTICS, S.L., priority 2024, published 2025)
Numbering of substitutions follows the chain as printed.

Experiments:
[1] = tested on: Siglec-15 positive cells; assay: Internalization assay (Zenon pHrodo iFL Green); type: cell-based
Description: Internalization assay (Zhenon pHrodo): Sufficient volumes of 4× working solution of anti-Siglec-15 antibodies (10 nM) were prepared in cell culture medium for a total of 25 μL for each well of a 96-well plate. A working solution of Zenon™ pHrodo™ iFL IgG Labeling Reagent was prepared at 30 nM and 25 μL were added to each well. The mix was incubated for 5 minutes at room temperature to allow the labeling complexes to form. 5 mL of suspension cells at 2×10^6 cells/mL in cell culture medium were prepared and 50 μL of cells were added to each well of the 96-well plate containing the mix of anti-Siglec-15 antibody and the Zenon™ labeling reagent. Cells were incubated with the labeling complex for different timepoints (1-24 hours) under standard cell culture conditions. Fluorescence was analyzed by flow cytometry.

[2] = target: T1, human Siglec-15 (Homo sapiens, UniProt Q6ZMC9); assay: Blocking of human Siglec-15 binding to Jurkat cells (flow cytometry); conditions: flow cytometry (FIG. 22)
T1 construct: expressed in transfected cells
T1 sequence (Q6ZMC9 20-328): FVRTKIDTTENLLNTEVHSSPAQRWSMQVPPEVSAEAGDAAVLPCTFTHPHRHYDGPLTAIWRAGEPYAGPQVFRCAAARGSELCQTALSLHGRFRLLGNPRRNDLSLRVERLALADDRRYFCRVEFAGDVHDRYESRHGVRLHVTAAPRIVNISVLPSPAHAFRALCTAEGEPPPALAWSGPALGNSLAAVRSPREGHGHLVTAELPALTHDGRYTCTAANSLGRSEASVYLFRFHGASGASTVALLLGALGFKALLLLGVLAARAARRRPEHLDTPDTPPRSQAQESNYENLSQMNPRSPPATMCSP
Description: Blocking assay (Flow cytometry): Briefly, the anti-Siglec-15 antibodies of the disclosure or controls were diluted with human Siglec-15-human Fc protein (Sinobiologicals, 13976-H02H1), at 66.67 nM, and incubated at room temperature for 40 minutes. Then, Jurkat T cells were harvested from cell culture flasks, washed twice, and re-suspended in PBS containing 2% v/v Bovine serum albumin (FACS buffer). Then, 0.5×10^5 cells per well in 96 well-plates were incubated in 100 μL of the antibody/Siglec-15-human Fc mixtures for 40 minutes at 4° C. The plates were washed twice with FACS buffer, and then added and incubated for 40 minutes at 4° C. in dark with 100 μl/well Goat Anti-human IgG (H+L) (1:200 dilution in FACS buffer, Thermofisher). Cells were washed twice and re-suspended in FACS buffer. Fluorescence was measured in a flow cytometer. Data was analyzed using Flowjo and Graphpad Prism software.

[3] = target: T2, mutant version of Siglec-15 (R143A) (Homo sapiens, UniProt Q6ZMC9, R143A); assay: Flow cytometry binding to HEK293T cells expressing mutant Siglec-15 (R143A); conditions: flow cytometry (FIG. 20, FIG. 21)
T2 construct: expressed in transfected cells; host or cells: HEK293T
T2 sequence (Q6ZMC9 20-328 R143A): T1 sequence (Q6ZMC9 20-328) with R124A
Description: Assessment of the binding of anti-Siglec-15 antibodies to HEK293T cells expressing full length human Siglec-15, or mutant human Siglec-15 (R143A) or the domain 2 of human Siglec-15 by Flow cytometry: Siglec-15+, Siglec-15+R143A, and Siglec-15 Domain 2 (D2) HEK293T cells were detached using tryple and washed once with PBS, resuspended in 1× flow cytometry buffer (PBS with 1% FBS) at approximately 1-2×10^6 cells/mL. Then, anti-Siglec-15 mAbs were added to the cell suspension at the desired concentration, starting at 10 μg/mL and performing 1/3 dilutions. Cells were incubated with the indicated antibodies for 30-60 minutes at 4° C. in the dark to prevent degradation of the fluorescent signal. After the primary antibody incubation, cells were washed twice with PBS or flow cytometry buffer by centrifuging at 300-500× g for 5 minutes and the pellet resuspended in fresh buffer. The following antibody was added: anti-human IgG-PE at a 1:500 dilution. Cells were incubated with the secondary antibody for 30 minutes at 4° C. in the dark. Finally, cells were washed twice with PBS or flow cytometry buffer to remove any excess secondary antibody and acquired in a flow cytometer.

[4] = target: T3, recombinant human Siglec-15 protein (Homo sapiens, UniProt Q6ZMC9); assay: BIACORE surface plasmon resonance binding affinity; conditions: SPR; antibody as ligand, human Siglec-15 as analyte; 1:1 Langmuir model
T3 construct: purchased Bonopusbio CW70-50 ug
T3 sequence (Q6ZMC9 20-263 limits assumed): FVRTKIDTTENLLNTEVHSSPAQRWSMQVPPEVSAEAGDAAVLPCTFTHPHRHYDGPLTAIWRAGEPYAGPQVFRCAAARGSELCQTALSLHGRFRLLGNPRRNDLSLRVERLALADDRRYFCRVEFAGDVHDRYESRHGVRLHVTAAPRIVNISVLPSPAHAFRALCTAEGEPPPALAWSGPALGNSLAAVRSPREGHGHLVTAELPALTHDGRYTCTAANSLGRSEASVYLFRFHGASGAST
Excerpt: Binding affinity determination of anti-Siglec-15 monoclonal antibodies using BIACORE surface plasmon resonance: The purified anti-Siglec-15 monoclonal antibodies (mAbs) were characterized for binding affinity and binding kinetics by Biacore T200 system (GE healthcare, Pittsburgh, PA, USA). Anti-Siglec-15 antibodies were covalently linked to a CM5 chip (carboxy methyl dextran coated chip, GE healthcare, Cat #BR-1005-30) via primary amines, using a standard amine coupling kit provided by Biacore (GE healthcare, Pittsburgh, PA, USA). Un-reacted moieties on the biosensor surface were blocked with ethanolamine. Then, serially diluted recombinant human Siglec-15-his protein (Bonopusbio, CW70-50 ug), 2-fold serial dilution in HBS-EP buffer starting at 80 nM, were respectively flown onto the chip at a flow rate of […]. The antigen-antibody association kinetics was followed for 2 minutes, and the dissociation kinetics was followed for 10 minutes. The association and dissociation curves were fit to a 1:1 Langmuir binding model using BIAcore evaluation software. The dissociation rate (kd) and association constant (ka) rate constants were obtained using Evaluation Software. The equilibrium dissociation constant (KD) was calculated from the ratio of kd over ka.

B1: S15B1: parental mouse anti-Siglec-15 monoclonal antibody from hybridoma; VH SEQ ID NO: 18, VL SEQ ID NO: 19 (antibody, V domains shown)
VH: QVQLQQSGPELVKPGASVKISCKASGYAFSSSWMNWVKQRPGKGLEWIGRIYPGHGETNYNGKFKDKATVTADKSSSTTYMQLSSLTSEDSAVYFCARVDNSDPYYFDYWGQGTTLTVSS
VL: DIVLTQSPASLAVSLGQRATISCRASKSVSTSGYSYMHWYQQKPGQPPKLLIYLASNLESGVPARFSGSGSGTDFTLNIHPVEEEDAATYYCQHGRELPFTFGSGTKLEIK
modifications: Clone S15B1 VH; Clone S15B1 VL
- percentage of cells that internalized the antibody ([1]; Zenon pHrodo iFL Green label, 24 hours at 37° C.): 100%
- internalization, fold increase over isotype control ([1]; kinetics over 1, 2, 4, 16, and 24 hours): approximately 6 fold
- blocking of binding of human Siglec-15 to Jurkat cells [2]: approximately 60%
- binding to HEK293T cells expressing mutated Siglec-15 (R143A) [3]: demonstrated binding
- ka [4]: 4.46e+06 M⁻¹ s⁻¹
- kd [4]: 0.000233 s⁻¹
